Measurements: paper PMC9482650, “Quantitative fragmentomics allow affinity mapping of interactomes” (Nature Communications, 2022)

What was measured:
Experiment in all cases: holdup assay
Parameters in all cases: key: below the threshold = too weak to quantify, mostly under pKd 3.1 to 4
[1] = biological target: T1, SNTG2, Q9NY99
T1 sequence (Q9NY99 68-166, limits assumed, looked up): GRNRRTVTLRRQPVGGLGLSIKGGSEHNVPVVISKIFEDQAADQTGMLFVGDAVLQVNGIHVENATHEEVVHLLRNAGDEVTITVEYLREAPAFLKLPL

[2] = biological target: T2, MPDZ_12, O75970
T2 sequence (O75970 1857-1958, limits assumed, looked up): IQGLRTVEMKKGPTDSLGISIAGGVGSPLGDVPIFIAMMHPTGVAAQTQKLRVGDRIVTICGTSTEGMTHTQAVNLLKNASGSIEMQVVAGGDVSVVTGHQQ

[3] = biological target: GRIP2_7, Q9C0E4
Chain of GRIP2_7, Q9C0E4 (Q9C0E4 934-1023): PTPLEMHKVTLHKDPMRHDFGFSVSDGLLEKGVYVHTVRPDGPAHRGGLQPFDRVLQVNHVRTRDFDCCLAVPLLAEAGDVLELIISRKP

[4] = biological target: DLG1_3, Q12959
Chain of DLG1_3, Q12959 (Q12959 457-571): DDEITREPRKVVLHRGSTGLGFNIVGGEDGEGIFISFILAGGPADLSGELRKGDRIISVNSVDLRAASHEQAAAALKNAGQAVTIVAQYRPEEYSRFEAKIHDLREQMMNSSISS

[5] = biological target: MAST1, Q9Y2H9
Chain of MAST1, Q9Y2H9 (Q9Y2H9 962-1065): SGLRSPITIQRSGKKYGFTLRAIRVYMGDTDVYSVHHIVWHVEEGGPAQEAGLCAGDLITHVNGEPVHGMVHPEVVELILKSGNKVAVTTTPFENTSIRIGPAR

[6] = biological target: LDB3, O75112
Chain of LDB3, O75112 (O75112 1-94): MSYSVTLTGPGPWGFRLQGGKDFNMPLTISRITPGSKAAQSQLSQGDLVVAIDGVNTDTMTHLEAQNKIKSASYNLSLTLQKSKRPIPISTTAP

[7] = biological target: SCRIB_1, Q14160
Chain of SCRIB_1, Q14160 (Q14160 718-814): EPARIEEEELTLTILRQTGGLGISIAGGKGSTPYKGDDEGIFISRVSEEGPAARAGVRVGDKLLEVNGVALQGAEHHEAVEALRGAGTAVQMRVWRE

[8] = biological target: T3, GRIP1_7, Q9Y3R0
T3 sequence (Q9Y3R0 999-1096, limits assumed, looked up): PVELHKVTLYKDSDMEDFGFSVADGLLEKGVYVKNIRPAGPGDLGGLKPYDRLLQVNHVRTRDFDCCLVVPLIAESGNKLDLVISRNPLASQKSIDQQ

[9] = biological target: DLG4_3, P78352
Chain of DLG4_3, P78352 (P78352 306-403): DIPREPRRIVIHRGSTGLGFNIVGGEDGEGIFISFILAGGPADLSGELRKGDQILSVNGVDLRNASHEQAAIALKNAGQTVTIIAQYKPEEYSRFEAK

[10] = biological target: T4, HTRA3, P83110
T4 sequence (P83110 354-453, limits assumed, looked up): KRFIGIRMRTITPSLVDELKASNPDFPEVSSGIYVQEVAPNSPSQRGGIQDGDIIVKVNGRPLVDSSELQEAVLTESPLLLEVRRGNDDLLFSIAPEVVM

[11] = biological target: NHERF2_2, Q15599
Chain of NHERF2_2, Q15599 (Q15599 142-238): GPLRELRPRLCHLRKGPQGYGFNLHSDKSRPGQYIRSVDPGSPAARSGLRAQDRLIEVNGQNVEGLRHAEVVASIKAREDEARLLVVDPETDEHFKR

[12] = biological target: T5, CARD11, Q9BXL7
T5 sequence (Q9BXL7 662-765, limits assumed, looked up): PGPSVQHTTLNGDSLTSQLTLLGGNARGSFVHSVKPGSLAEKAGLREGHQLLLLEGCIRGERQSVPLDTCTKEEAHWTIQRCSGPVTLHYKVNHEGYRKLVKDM

[13] = biological target: T6, LIN7C, Q9NUP9
T6 sequence (Q9NUP9 88-185, limits assumed, looked up): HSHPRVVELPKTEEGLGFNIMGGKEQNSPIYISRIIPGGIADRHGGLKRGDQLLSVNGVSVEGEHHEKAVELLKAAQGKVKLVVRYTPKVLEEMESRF

[14] = biological target: GRIP2_5, Q9C0E4
Chain of GRIP2_5, Q9C0E4 (Q9C0E4 544-642): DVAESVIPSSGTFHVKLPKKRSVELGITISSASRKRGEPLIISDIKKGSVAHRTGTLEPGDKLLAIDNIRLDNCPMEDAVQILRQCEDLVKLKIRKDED

[15] = biological target: GORASP2, Q9H8Y8
[16] = biological target: MAGI2_2, Q86UL8
Chain of MAGI2_2, Q86UL8 (Q86UL8 410-522): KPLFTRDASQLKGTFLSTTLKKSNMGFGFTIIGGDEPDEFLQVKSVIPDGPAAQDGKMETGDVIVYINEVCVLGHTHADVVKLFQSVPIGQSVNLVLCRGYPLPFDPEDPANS

[17] = biological target: HTRA2, O43464
Chain of HTRA2, O43464 (O43464 355-458): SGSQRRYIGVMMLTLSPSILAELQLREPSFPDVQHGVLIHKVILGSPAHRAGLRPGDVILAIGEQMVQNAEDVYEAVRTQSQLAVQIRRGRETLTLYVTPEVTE

[18] = biological target: GORASP1, Q9BQQ3
Chain of GORASP1, Q9BQQ3 (Q9BQQ3 1-208): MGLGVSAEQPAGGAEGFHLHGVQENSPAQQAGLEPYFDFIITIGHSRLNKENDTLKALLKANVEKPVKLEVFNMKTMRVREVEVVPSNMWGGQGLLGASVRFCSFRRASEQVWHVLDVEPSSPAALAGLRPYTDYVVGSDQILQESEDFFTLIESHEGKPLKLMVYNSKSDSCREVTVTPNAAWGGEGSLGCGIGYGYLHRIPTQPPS

[19] = biological target: FRMPD2_2, Q68DX3
Chain of FRMPD2_2, Q68DX3 (Q68DX3 944-1038): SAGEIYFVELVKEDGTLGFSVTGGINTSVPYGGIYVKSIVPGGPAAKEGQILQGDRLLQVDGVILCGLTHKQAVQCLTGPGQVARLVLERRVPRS

[20] = biological target: MAGI2_5, Q86UL8
Chain of MAGI2_5, Q86UL8 (Q86UL8 915-1017): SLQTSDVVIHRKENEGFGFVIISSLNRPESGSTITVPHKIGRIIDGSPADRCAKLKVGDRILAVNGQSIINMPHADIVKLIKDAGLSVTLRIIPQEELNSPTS

[21] = biological target: GRID2IP_1, A4D2P6
Chain of GRID2IP_1, A4D2P6 (A4D2P6 1-87): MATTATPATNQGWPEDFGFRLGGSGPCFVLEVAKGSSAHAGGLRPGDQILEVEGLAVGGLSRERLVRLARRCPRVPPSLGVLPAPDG

[22] = biological target: GRID2IP_2, A4D2P6
Chain of GRID2IP_2, A4D2P6 (A4D2P6 272-370): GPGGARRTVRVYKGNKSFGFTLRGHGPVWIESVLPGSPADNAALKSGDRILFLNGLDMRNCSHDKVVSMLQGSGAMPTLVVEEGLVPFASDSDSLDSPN

[23] = biological target: T7, TIAM2, Q8IVF5
T7 sequence (Q8IVF5 885-986, limits assumed, looked up): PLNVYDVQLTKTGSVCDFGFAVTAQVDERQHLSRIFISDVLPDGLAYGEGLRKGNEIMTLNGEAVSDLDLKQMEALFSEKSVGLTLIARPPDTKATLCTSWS

[24] = biological target: T8, APBA3_1, O96018
T8 sequence (O96018 389-490, limits assumed, looked up): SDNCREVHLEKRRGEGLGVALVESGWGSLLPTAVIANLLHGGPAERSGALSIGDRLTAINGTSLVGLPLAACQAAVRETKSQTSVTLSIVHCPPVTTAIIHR

[25] = biological target: AHNAK1, Q09666
Chain of AHNAK1, Q09666 (Q09666 4-100): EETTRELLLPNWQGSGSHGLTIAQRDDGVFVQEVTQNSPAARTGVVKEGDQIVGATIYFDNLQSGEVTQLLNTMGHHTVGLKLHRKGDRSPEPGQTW

[26] = biological target: T9, SYNJ2BP, P57105; conditions: plain residues with an end cap or a label only (N-terminal biotin on a linker: ttds)
T9 sequence (P57105 8-110, limits assumed, looked up): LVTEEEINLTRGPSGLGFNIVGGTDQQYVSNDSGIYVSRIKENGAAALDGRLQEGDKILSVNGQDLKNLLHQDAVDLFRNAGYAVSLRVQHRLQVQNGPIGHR

[27] = biological target: T10, SNTA1, Q13424; conditions: plain residues with an end cap or a label only (N-terminal biotin on a linker: ttds)
T10 sequence (Q13424 82-180, limits assumed, looked up): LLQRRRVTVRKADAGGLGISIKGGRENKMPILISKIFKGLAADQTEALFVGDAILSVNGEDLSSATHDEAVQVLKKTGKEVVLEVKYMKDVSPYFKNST

[28] = biological target: DLG2_2, Q15700; conditions: plain residues with an end cap or a label only (N-terminal biotin on a linker: ttds)
Chain of DLG2_2, Q15700 (Q15700 189-283): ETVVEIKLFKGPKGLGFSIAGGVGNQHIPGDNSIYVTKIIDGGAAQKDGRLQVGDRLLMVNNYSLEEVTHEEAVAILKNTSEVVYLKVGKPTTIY

[29] = plain residues with an end cap or a label only (N-terminal biotin on a linker: ahx)
[30] = plain residues with an end cap or a label only (N-terminal biotin on a linker: ttds)

For LSDPSVSTVV [GRIN1, Q05586;Q05586-2], the pKd [1, 29] was “below the threshold”, the pKd [2, 29] was “below the threshold” and the pKd [3, 29] was “below the threshold”. The pKd [4, 29] was “below the threshold”, the pKd [5, 29] was “below the threshold” and the pKd [6, 29] was “below the threshold”. For the same binder, the pKd [7, 29] was “below the threshold”, the pKd [8, 29] was “below the threshold” and the pKd [9, 29] was “below the threshold”. The pKd [10, 29] was “below the threshold”, the pKd [11, 29] was “below the threshold” and the pKd [12, 29] was “below the threshold”. The pKd [13, 29] was “below the threshold”, the pKd [14, 29] was “below the threshold” and the pKd [15, 29] was “below the threshold”. For the same binder, the pKd [16, 29] was “below the threshold”, the pKd [17, 29] was “below the threshold” and the pKd [18, 29] was “below the threshold”. The pKd [19, 29] was “below the threshold”, the pKd [20, 29] was 4.36 and the pKd [21, 29] was “below the threshold”. The pKd [22, 29] was “below the threshold”, the pKd [23, 29] was “below the threshold” and the pKd [24, 29] was “below the threshold”. For the same binder, the pKd [25, 29] was “below the threshold”.

With PRVKPQRSKV [PPP1R13L, Q8WUF5] the pKd [1, 30] was “below the threshold”, the pKd [2, 30] was “below the threshold” and the pKd [3, 30] was “below the threshold”. For the same binder, the pKd [4, 30] was “below the threshold”, the pKd [5, 30] was 3.71 and the pKd [6, 30] was “below the threshold”. The pKd [26] was “below the threshold”, the pKd [7, 30] was “below the threshold” and the pKd [8, 30] was “below the threshold”. For the same binder, the pKd [27] was “below the threshold”, the pKd [9, 30] was “below the threshold” and the pKd [10, 30] was “below the threshold”. For the same binder, the pKd [11, 30] was “below the threshold”, the pKd [12, 30] was “below the threshold” and the pKd [13, 30] was “below the threshold”. For the same binder, the pKd [14, 30] was “below the threshold”, the pKd [28] was “below the threshold” and the pKd [15, 30] was “below the threshold”. For the same binder, the pKd [16, 30] was 3.79, the pKd [17, 30] was “below the threshold” and the pKd [18, 30] was “below the threshold”. The pKd [19, 30] was “below the threshold”, the pKd [20, 30] was “below the threshold” and the pKd [21, 30] was “below the threshold”. The pKd [22, 30] was 4.51, the pKd [23, 30] was “below the threshold” and the pKd [24, 30] was “below the threshold”. The pKd [25, 30] was “below the threshold”.

With EMDRRPATVV [PLCB4, Q15147] the pKd [1, 30] was 3.71, the pKd [2, 30] was “below the threshold” and the pKd [3, 30] was 3.63. The pKd [5, 30] was 4.48, the pKd [6, 30] was “below the threshold” and the pKd [26] was 3.7. For the same binder, the pKd [7, 30] was 3.84, the pKd [8, 30] was “below the threshold” and the pKd [27] was 4.08. For the same binder, the pKd [9, 30] was 3.95, the pKd [10, 30] was “below the threshold” and the pKd [11, 30] was “below the threshold”. For the same binder, the pKd [12, 30] was 3.64, the pKd [13, 30] was “below the threshold” and the pKd [14, 30] was “below the threshold”. It also gave a pKd [28] of 4.23, a pKd [15, 30] of 4.23 and a pKd [16, 30] of 4.31. For the same binder, the pKd [17, 30] was “below the threshold”, the pKd [18, 30] was 4.06 and the pKd [19, 30] was 3.78. For the same binder, the pKd [20, 30] was “below the threshold”, the pKd [21, 30] was “below the threshold” and the pKd [22, 30] was 3.93. The pKd [23, 30] was “below the threshold”, the pKd [24, 30] was “below the threshold” and the pKd [25, 30] was “below the threshold”.

In the case of SKPTRRETEV [HPV35-E6, P27228], the pKd [1, 30] is reported as 3.95, the pKd [2, 30] is reported as “below the threshold” and the pKd [3, 30] is reported as “below the threshold”. For the same binder, the pKd [4, 30] was 4.77, the pKd [5, 30] was “below the threshold” and the pKd [6, 30] was “below the threshold”. For the same binder, the pKd [26] was 5.69, the pKd [7, 30] was 4.56 and the pKd [8, 30] was “below the threshold”. The pKd [27] was 4.85, the pKd [9, 30] was 5.2 and the pKd [10, 30] was “below the threshold”. The pKd [11, 30] was “below the threshold”, the pKd [12, 30] was “below the threshold” and the pKd [13, 30] was 3.76. The pKd [14, 30] was “below the threshold”, the pKd [28] was 5.27 and the pKd [15, 30] was 3.82. For the same binder, the pKd [16, 30] was 4.93, the pKd [17, 30] was “below the threshold” and the pKd [18, 30] was “below the threshold”. The pKd [19, 30] was “below the threshold”, the pKd [20, 30] was 4.18 and the pKd [21, 30] was “below the threshold”. For the same binder, the pKd [22, 30] was “below the threshold”, the pKd [23, 30] was “below the threshold” and the pKd [24, 30] was “below the threshold”. The pKd [25, 30] was “below the threshold”.

NDPAWDETNL [ARHGEF7, Q14155;Q14155-1] was tested, and the pKd [1, 30] was 4.22, the pKd [2, 30] was “below the threshold” and the pKd [3, 30] was “below the threshold”. For the same binder, the pKd [4, 30] was “below the threshold”, the pKd [5, 30] was 4.92 and the pKd [6, 30] was “below the threshold”. The pKd [7, 30] was 5.5, the pKd [8, 30] was “below the threshold” and the pKd [9, 30] was “below the threshold”. The pKd [10, 30] was “below the threshold”, the pKd [11, 30] was 4.81 and the pKd [12, 30] was “below the threshold”. The pKd [13, 30] was “below the threshold”, the pKd [14, 30] was “below the threshold” and the pKd [28] was “below the threshold”. The pKd [15, 30] was “below the threshold”, the pKd [16, 30] was “below the threshold” and the pKd [17, 30] was “below the threshold”. The pKd [18, 30] was “below the threshold”, the pKd [19, 30] was “below the threshold” and the pKd [20, 30] was “below the threshold”. The pKd [21, 30] was “below the threshold”, the pKd [23, 30] was “below the threshold” and the pKd [24, 30] was “below the threshold”. For the same binder, the pKd [25, 30] was “below the threshold”.
